Reference: paper PMC7126280 (Structure (London, England : 1993), 2006)

Molecular target: the molecule itself
Assay: AUC + other: dynamic light scattering

B1: SARS-CoV ORF-9b protein (natural protein)
chain: MDPNQTNVVPPALHLVDPQIQLTITRMEDAMGQGQNSADPKVYPIILRLGSQLSLSMARRNLDSLEARAFQSTPIVVQMTKLATTEELPDEFVVVTAK
Question: B1 was tested. Which “stoichiometry N” value did it give?
Answer: The value was 2.
